This is an account of results in publication PMC9029106.

The test concerns the target SKP2 (UniProt Q13309). Briefly: co-IP, blot for Myc and p27. The settings on record: reference: wild-type p27; sites T187.

“p27 (Kip1) (from UniProt P46527) p27 T187A”: the “binding against the reference” value is listed as “lost”.
